Experimental findings from patent US20230051538A1 are described below.

One assay addresses alpha-synuclein monomer (UniProt P37840). The assay can be described thus: SPR, antibody immobilized, steady state fitting. In general terms: SPR reads the build-up and loss of mass on a sensor chip optically.
Assay [1] has as its target alpha-synuclein physiological tetramer (UniProt P37840). The assay can be described thus: SPR, antibody immobilized, steady state fitting.
The target of assay [2] is alpha-synuclein oligomers (UniProt P37840). The assay can be described thus: SPR, antibody immobilized, kinetic fitting, 1:1 model.
The target in assay [3] is alpha-synuclein sonicated preformed fibrils (soluble fibrils) (human) (UniProt P37840). Described as above.
Assay [4] has as its target alpha-synuclein in Lewy Body Disease (LBD/DLB) brain (human) (UniProt P37840). Put plainly: dot blot signal on LBD brain extract over control brain extract.

One may read the Kd as the equilibrium constant for the complex coming apart. As usually defined, the koff is a measure of how fast the partners let go of each other. Read a low koff as a long-lived complex. As usually defined, the kon is the rate constant with which the complex forms. Low values mean slower complex formation, high ones faster complex formation. Take “NI-202.12F4 (Creative Biolabs) (antibody)”: the Kd in the assay with alpha-synuclein monomer turned out to be 8600 nM; in assay [1] it was 14000 nM; in assay [2], 131 nM; in assay [3] it was 12 nM. The koff in assay [2] is 0.001 s⁻¹; in assay [3], 3.75e-05 s⁻¹. For the same substance, the results for the kon in assay [2] and in assay [3] were 7640 M⁻¹ s⁻¹ and 3100 M⁻¹ s⁻¹, respectively.

“Prasinezumab, Human IgG, PRX002/RG7935, Creative Biolabs (antibody)”: the Kd is 100 nM with alpha-synuclein monomer, 50 nM in assay [1], 72 nM in assay [2] and 11 nM in assay [3]. Moreover, the koff stood at 0.00181 s⁻¹ in assay [2] and 0.000209 s⁻¹ in assay [3]. Besides, the kon amounted to 25100 M⁻¹ s⁻¹ in assay [2] and 19500 M⁻¹ s⁻¹ in assay [3].

Take “Syn-F1 aggregation/fibril preferring antibody”: in assay [4], the Fold of reactivity LBD vs. Control (LBD / Control) was found to be 3.8 fold.

Substance “pan-Alpha Syn Antibody (4D6) (Biolegend)” registered a Fold of reactivity LBD vs. Control (LBD / Control) in assay [4] of 2.2 fold.
